# Test results published in paper doi:10.1101/714097 (bioRxiv, 2019).
# Like-named read-outs stand apart in the source and are kept apart here.
# Key:
# cryo-EM structure [1] = molecular target: the molecule itself; assay: cryo-EM structure
# cryo-EM structure [2] = molecular target: the molecule itself; assay: cryo-EM structure; remark: listed apart in the source
protein,measurement,setting,value
SpaP (natural protein) MGNDISLIALLAFSTLLPFIIASGTCFVKFSIVFVMVRNALGLQQIPSNMTLNGVALLLSMFVMWPIMHDAYVYFEDEDVTFNDISSLSKHVDEGLDGYRDYLIKYSDRELVQFFENAQLKRQYGEETETVKRDKDEIEKPSIFALLPAYALSEIKSAFKIGFYLYLPFVVVDLVVSSVLLALGMMMMSPVTISTPIKLVLFVALDGWTLLSKGLILQYMDIAT,stoichiometry N,cryo-EM structure [1],5
SpaQ (natural protein) MDDLVFAGNKALYLVLILSGWPTIVATIIGLLVGLFQTVTQLQEQTLPFGIKLLGVCLCLFLLSGWYGEVLLSYGRQVIFLALAKG,stoichiometry N,cryo-EM structure [1],4
InvG (natural protein) SEKIPVTGSGFVAKDDSLRTFFDAMALQLKEPVIVSKMAARKKITGNFEFHDPNALLEKLSLQLGLIWYFDGQAIYIYDASEMRNAVVSLRNVSLNEFNNFLKRSGLYNKNYPLRGDNRKGTFYVSGPPVYVDMVVNAATMMDKQNDGIELGRQKIGVMRLNNTFVGDRTYNLRDQKMVIPGIATAIERLLQGEEQPLGNIVSSEPPAMPAFSANGEKGKAANYAGGMSLQEALKQNAAAGNIKIVAYPDTNSLLVKGTAEQVHFIEMLVKALDVAKRHVELSLWIVDLNKSDLERLGTSWSGSITIGDKLGVSLNQSSISTLDGSRFIAAVNALEEKKQATVVSRPVLLTQENVPAIFDNNRTFYTKLIGERNVALEHVTYGTMIRVLPRFSADGQIEMSLDIEDGNDKTPQSDTTTSVDALPEVGRTLISTIARVPHGKSLLVGGYTRDANTDTVQSIPFLGKLPLIGSLFRYSSKNKSNVVRVFMIEPKEIVDPLTPDASESVNNILKQSGAWSGDDKLQKWVRVYLDRGQEAIK,stoichiometry N,cryo-EM structure [2],15
same,stoichiometry N,cryo-EM structure [1],16
PrgH (natural protein) METSKEKTITSPGPYIVRLLNSSLNGCEFPLLTGRTLFVVGQSDALTASGQLPDIPADSFFIPLDHGGVNFEIQVDTDATEIILHELKEGNSESRSVQLNTPIQVGELLILIRPESEPWVPEQPEKLETSAKKNEPRFKNGIVAALAGFFILGIGTVGTLWILNSPQRQAAELDSLLGQEKERFQVLPGRDKMLYVAAQNERDTLWARQVLARGDYDKNARVINENEENKRISIWLDTYYPQLAYYRIHFDEPRKPVFWLSRQRNTMSKKELEVLSQKLRALMPYADSVNITLMDDVTAAGQAEAGLKQQALPYSRRNHKGGVTFVIQGALDDVEILRARQFVDSYYRTWGGRYVQFAIELKDDWLKGRSFQYGAEGYIKMSPGHWYFPSPL,stoichiometry N,cryo-EM structure [2],23
same,stoichiometry N,cryo-EM structure [1],24
PrgK (natural protein) CKDKDLLKGLDQEQANEVIAVLQMHNIEANKIDSGKLGYSITVAEPDFTAAVYWIKTYQLPPRPRVEIAQMFPADSLVSSPRAEKARLYSAIEQRLEQSLQTMEGVLSARVHISYDIDAGENGRPPKPVHLSALAVYERGSPLAHQISDIKRFLKNSFADVDYDNISVVLSERSDAQLQAPGTPVKRNSFATSWIVLIILLSVMSAGFGVWYYKNHYARNKKGITADDKAKSSNE,stoichiometry N,cryo-EM structure [2],23
same,stoichiometry N,cryo-EM structure [1],24
